The text below walks through data of US20260028391A1.

Assay [1] deals with fusion glycoprotein of Human metapneumovirus-TN/96-213 (BEI NR-22243) (human metapneumovirus TN/96-213). In words: cell-based or functional assay.
The target of assay [2] is fusion glycoprotein of the MPV D280 used in the neutralization assay of Example 3 (metapneumovirus (strain not stated)). In words: cell-based or functional assay.
Assay [3] has as its target fusion glycoprotein of Human Metapneumovirus-GFP CAN97-83 (Vira Tree M121) (human metapneumovirus CAN97-83) (UniProt Q6WB98). In words: cell-based or functional assay.
The target of assay [4] is MPV fusion glycoprotein with the D280N mutation (MPV-F N280), recombinant protein loaded on sensors (metapneumovirus (MPV), strain not stated). In words: same manner as Experiment 1, RUN10, MPV-F D280 or MPV-F N280 on the sensors (Example 6, Experiment 3).
The target of assay [5] is MPV fusion glycoprotein MPV-F N280 (metapneumovirus (strain not stated)). In words: SPR; sensors loaded with MPV-F, mAb in solution (Experiment 3). Background: SPR reads the build-up and loss of mass on a sensor chip optically.
For assay [6], the target named is MPV fusion glycoprotein MPV-F D280 (metapneumovirus (strain not stated)). The description is as above.
The target of assay [7] is MPV fusion glycoprotein MPV-F N280 (metapneumovirus (strain not stated)). In words: SPR; sensors loaded with F protein, mAb in solution.
The target in assay [8] is MPV fusion glycoprotein MPV-F D280 (metapneumovirus (strain not stated)). The assay is described as above.
The target of assay [9] is RSV F A S433P-G446E (RSV A, strain A2) (UniProt P03420). Nature of the assay: FACS, % binding to RSV F A variants.
Assay [10] deals with RSV F A N208Y-N671I (RSV A, strain A2) (UniProt P03420). Nature of the assay: FACS, % binding to RSV F A variants.
Assay [11] addresses RSV F A S433P (RSV A, strain A2) (UniProt P03420). Nature of the assay: FACS, % binding to RSV F A variants. In general terms: A flow cytometer gives signals particle by particle.
For assay [12], the target named is RSV-B B9320 F protein (RSV B, strain B9320). In words: cell-based or functional assay.
Assay [13] deals with RSV-long strain fusion glycoprotein (F) (RSV, long strain) (UniProt P12568). Nature of the assay: cell-based or functional assay.
Assay [14] deals with RSV-B B18537/62 F protein (RSV B, strain B18537/62) (UniProt P13843). In words: cell-based or functional assay.
The target in assay [15] is biot-MPV-F D280N (metapneumovirus (MPV)). In words: BLI (Octet), biotinylated F on SA sensors, mAb 5 µg/ml; batch KYT. On the technique in general: BLI is a label-free optical method that tracks binding on a fibre tip over time.
The target in assay [16] is biot-MPV-F wt (metapneumovirus (MPV)). Described as above.
Assay [17] deals with biot-RSV-F wt (respiratory syncytial virus (RSV)). Described as above.
Assay [18] has as its target biot-MPV-F wt (metapneumovirus (MPV)). Nature of the assay: BLI, SA sensor loaded with biot-MPV-F wt, mAb 5 ug/ml, 4 min association, 6 min dissociation.
Assay [19] has as its target biot-MPV-F D280N (metapneumovirus (MPV)). Nature of the assay: BLI (Octet), biotinylated F on SA sensors, mAb 5 µg/ml; forced deamidation sample, day 13 at 40 °C.
For assay [20], the target named is biot-MPV-F wt (metapneumovirus (MPV)). Described as above.
Assay [21] addresses biot-RSV-F wt (respiratory syncytial virus (RSV)). Described as above.
For assay [22], the target named is biot-MPV-F D280N (metapneumovirus (MPV)). In words: BLI, SA sensor loaded with biot-MPV-F D280N (sheet title 'MPV-G D280N'), mAb 5 ug/ml, 4 min association, 6 min dissociation.
Assay [23] shares this target. In words: BLI (Octet), biotinylated F on SA sensors, mAb 5 µg/ml; forced deamidation sample, day 7 at 40 °C.
Assay [24] concerns the target biot-MPV-F wt (metapneumovirus (MPV)). The description is as above.
Assay [25] addresses biot-RSV-F wt (respiratory syncytial virus (RSV)). The assay is described as above.
The target is the same in assay [26]. Nature of the assay: BLI, SA sensor loaded with biot-RSV-F wt, mAb 5 ug/ml, 4 min association, 6 min dissociation.
Assay [27] addresses biot-MPV-F D280N (metapneumovirus (MPV)). In words: BLI (Octet), biotinylated F on SA sensors, mAb 5 µg/ml; forced deamidation sample, day 0.
For assay [28], the target named is biot-MPV-F wt (metapneumovirus (MPV)). The description is as above.
The target in assay [29] is biot-RSV-F wt (respiratory syncytial virus (RSV)). The description is as above.

Values joined by “and” are separate entries in the source; they are usually repeats but may differ in a detail not shown here. Identical values can stand only once.

B1: MPK15 (antibody, human IgG1, V domains shown)
VH: EVQLVESGGGLVKPGGSLRLSCTVSGITFSDAWMTWVRQAPGKGLEWVGRIKRKVDGETADYAPSVKGRFTISRDDSKSTLYLQMNSLKTEDTGLYYCLTTWSDQFWGQGTLVTVSS
VL: QSVVTQEPSLTVSPGGTVTLTCDSSSGAVTRGHYPFWFQQKPGQVPRTLIYDTSKKHSWTPARFSGSLLGDKAVLTLSGAQPEDEADYYCLLTYSGVRVFGGGTKLTVL
What is called Kd is the concentration at which binding is half-saturated. B1: the MPV D280 Neutralization by MPK15 in [1] turned out to be 15.3; in [3] it was 5.8. For the same molecule, the MPV D280 Neutralization - IC50 in assay [2] was 3.81 ng/mL and 3.4 ng/mL. The Kd in assay [4] was 73 pM; in [5], 72 pM; in [6], 71 pM; in assay [7] it was 57.4 pM; in [8], 78.4 pM.

B2: MPK65-v2-v1.2 (antibody, V domains shown)
VH: QVPLVQSGAEVKKPGESLKISCKGSGYSFINYWIGWVRQMPGKGLEWMGVIYPFDSDTKYSPSFQGHVTISADKSSNTAYVQWSSLKASDTAMYYCARFTFGIAVVTDDVSGEGQAFEIWGQGTMVTVSS
VL: QIVMMQSPATLSVSPGERATLSCRASQSVAGNLAWYQQRPGQAPRLLIYGASTRATGVPARFSGSGSETEFTLTISSLQSEDFAVYYCHQYSNLPQAFGQGTRLDIK
Turning to B2, the % binding turned out to be 32.9% in assay [9], 0.38% in assay [10] and 31.7% in assay [11].

B3: MPK190-rFab (Fab, V domains shown)
VH: EVQLVESGGGLVKPGGSLTLSCAASGFSISGYGMNWVRQAPGRGLEWVASISASSTYIYYADSMKGRFTISRDNGKTSLYLQMKSLRAEDTAVYYCARAPIEPPYFDLWGRGTLVTVSS
VL: QSVLTQPPSVSGAPGQRVTISCTGSNSNIGAGYDVHWYQHLPGKAPKVLIYGNNNRPSVVPDRFSGSNSGASASLAISGLQAEDEADYFCQSYDRRLSGPIFGGGTKLTVL
With B3, the figures for the EC50, virus neutralization (Fab testing) in assay [12], in [13] and in assay [14] were 32.5 pM, 97.9 pM and 63.3 pM, respectively.

B4: MPK190-rIgG1-LS (antibody, V domains shown)
VH: EVQLVESGGGLVKPGGSLTLSCAASGFSISGYGMNWVRQAPGRGLEWVASISASSTYIYYADSMKGRFTISRDNGKTSLYLQMKSLRAEDTAVYYCARAPIEPPYFDLWGRGTLVTVSS
VL: QSVLTQPPSVSGAPGQRVTISCTGSNSNIGAGYDVHWYQHLPGKAPKVLIYGNNNRPSVVPDRFSGSNSGASASLAISGLQAEDEADYFCQSYDRRLSGPIFGGGTKLTVL
For B4, the Kd is 370 pM in [15]; less than 1 pM in assay [16]; 53.9 pM in assay [17]; less than 1 pM in assay [18]; 733 pM in assay [19]; 57.7 pM in assay [20]. Moreover, the Kd was 304 pM in assay [21]; 381 pM in assay [22]; 600 pM in assay [23]; 15.9 pM in [24]; 128 pM in assay [25]; less than 1 pM in [26]. For the same molecule, the Kd in [27] was 441 pM; in assay [28], less than 1 pM; in [29] it was less than 1 pM.
